T1: murine CD300E-Fc (mouse)
T1 construct: mouse IgG2a-Fc fusion (R&D Systems); the entry is the whole fusion chain; also called mCD300E; Mouse CD300E-Fc
T1 chain: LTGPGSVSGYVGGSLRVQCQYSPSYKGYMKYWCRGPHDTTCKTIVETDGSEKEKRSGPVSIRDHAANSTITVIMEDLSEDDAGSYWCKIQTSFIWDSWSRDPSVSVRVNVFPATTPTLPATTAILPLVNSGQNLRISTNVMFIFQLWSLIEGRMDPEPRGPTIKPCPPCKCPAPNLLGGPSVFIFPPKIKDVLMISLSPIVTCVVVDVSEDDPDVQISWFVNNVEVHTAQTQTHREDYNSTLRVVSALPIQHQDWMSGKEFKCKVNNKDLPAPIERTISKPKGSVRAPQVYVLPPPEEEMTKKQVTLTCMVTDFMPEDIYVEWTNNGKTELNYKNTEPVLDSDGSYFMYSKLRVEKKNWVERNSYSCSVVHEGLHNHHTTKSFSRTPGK

T2: murine CD300C-Fc (mouse)
T2 construct: mouse IgG2a-Fc fusion (R&D Systems); the entry is the whole fusion chain; also called mCD300C; Mouse CD300C-Fc
T2 chain: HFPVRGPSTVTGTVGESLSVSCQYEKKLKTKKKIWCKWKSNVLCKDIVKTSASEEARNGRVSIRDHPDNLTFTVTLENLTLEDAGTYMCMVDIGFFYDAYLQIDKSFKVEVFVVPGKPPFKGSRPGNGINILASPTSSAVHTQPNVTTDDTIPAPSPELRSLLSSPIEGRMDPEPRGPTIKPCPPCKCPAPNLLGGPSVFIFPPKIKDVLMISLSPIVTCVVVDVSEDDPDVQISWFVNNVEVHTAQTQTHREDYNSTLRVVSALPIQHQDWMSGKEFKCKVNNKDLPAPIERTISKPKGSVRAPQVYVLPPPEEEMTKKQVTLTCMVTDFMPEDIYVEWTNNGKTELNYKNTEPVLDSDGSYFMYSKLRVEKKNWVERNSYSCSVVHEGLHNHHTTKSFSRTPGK

T3: human CD300LB transiently expressed on HEK293 cells (human, UniProt A8K4G0 18-201)
T3 construct: CD300LB expression constructs'; also called huCD300LB HEK293
T3 sequence: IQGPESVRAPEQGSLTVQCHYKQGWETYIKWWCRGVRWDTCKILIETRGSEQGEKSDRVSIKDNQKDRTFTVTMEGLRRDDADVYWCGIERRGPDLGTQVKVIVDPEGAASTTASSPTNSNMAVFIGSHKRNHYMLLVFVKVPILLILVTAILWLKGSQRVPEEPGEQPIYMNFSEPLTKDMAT


What was measured:
[1] = biological target: T4, murine CD300A-Fc (mouse); experiment: SPR (Carterra LSA), antibody immobilised
T4 construct: hIgG1-Fc fusion; the entry is the whole fusion chain; also called mCD300A; Mouse CD300A-Fc
Excerpt: (§1) In addition to the screening of antibodies for cross-reactivity by FACS analysis, surface plasmon resonance (SPR) analysis was used to determine the binding of antibodies to recombinant huCD300 and muCD300 family members (orthologs) conjugated to an Fc (human CD300A-Fc SEQ ID NO:144; human CD300LB-Fc SEQ ID NO:145; human CD300C-Fc SEQ ID NO: 146; human CD300D-Fc SEQ ID NO: 147; human CD300E-Fc SEQ ID NO: 148; human CD300F-Fc SEQ ID NO: 149; murine CD300A-Fc SEQ ID NO: 150; murine CD300LB-Fc SEQ ID NO:151; murine CD300C-Fc SEQ ID NO: 152; murine CD300D-Fc SEQ ID NO: 153, and murine CD300E-Fc SEQ ID NO: 154).
(§2) Binding of mouse anti-CD300LB IgG1 antibodies of the present disclosure to human and murine CD300 orthologs were evaluated by surface plasmon resonance (SPR) using a Carterra LSA instrument (Carterra, Salt Lake City, UT). […] A HC200M sensor chip (Carterra) was activated using the single channel flow cell with a 7-minute injection of a 1:1:1 mixture of 100 mM MES pH 5.5, 100 mM sulfo-NHS, 400 mM EDC (all reconstituted in MES pH 5.5; 100 μL of each mixed in vial immediately before running assay). After switching to the multi-channel array flow cell, the antibodies were injected over the activated chip in a 96-spot array for 10 minutes. The remaining unconjugated active groups on the chip were then blocked by injecting 1M Ethanolamine pH 8.5 (Carterra) for 7 minutes using the single channel flow cell. After priming with running buffer (HBS-TE, Carterra) with 0.5 mg/ml BSA (Sigma), the immobilized anti-CD300LB antibodies were tested for their ability to bind human and mouse recombinant CD300LB extracellular domains. Human CD300 family members and mouse CD300A were hIgG1-Fc fusions, while mouse CD300LB, mouse CD300C, mouse CD300D, and mouse CD300E were mouse IgG2a-Fc fusions (R&D Systems). Binding was assessed by injecting each analyte over the entire antibody array using the single channel flow cell. CD300 analytes were diluted to 300 nM or 600 nM in running buffer and injected in series without regeneration. Two or three buffer blanks were run between each mouse or human ortholog, respectively. Data were processed and analyzed using NextGenKIT high-throughput kinetics analysis software (Carterra).

[2] = biological target: T1, murine CD300E-Fc; experiment: SPR (Carterra LSA), antibody immobilised
Excerpt: as §1, §2

[3] = biological target: T4, murine CD300A-Fc; experiment: SPR (Carterra LSA), antibody immobilised, Fc fusion at 300 or 600 nM
Procedure: as §2
(§3) Results of anti-CD300LB antibody binding to murine CD300 family members is provided below in Table 8.

[4] = biological target: T1, murine CD300E-Fc; experiment: as above
Procedure: as §2, §3

[5] = biological target: T2, murine CD300C-Fc; experiment: as above
Procedure: as §2, §3

[6] = biological target: T3, human CD300LB transiently expressed on …; experiment: flow cytometry, transfected HEK293, 10 ug/mL, isotype subtracted
Procedure: In addition, supernatants or purified antibodies were tested for species crossreactivity by comparing the binding of human, mouse, and cynomolgous monkey CD300LB expressing cell lines. HEK293 were transfected with […] of human, mouse, and cyno CD300LB expression constructs using the Mirus system in 10 cm tissue culture dishes. Cells were then incubated for 24 hours in complete medium. Cells were harvested by incubation in TrypLE Express, then washed with PBS and labeled with 200 nM CFSE, 500 nM VioBlue, or a combination of the two to discriminate between human, mouse, and cyno CD300LB expressing cells. Cells were washed thoroughly with PBS containing 2% fetal bovine serum then resuspended at a total of 240,000 cells per well. Purified antibodies at 10 μg/mL were added and incubated for one hour before the cells were washed again and stained with an APC-labeled anti-human or anti-mouse secondary. Cells were then analyzed using a BD FACSCanto II. Antibodies were analyzed for specific binding to human, mouse, or cyno CD300LB by FlowJo software by gating on live cells, then the APC gMFI calculated for each labeled population minus the gMFI of the isotype control.

T4 sequence (chain, as listed by the source limits assumed): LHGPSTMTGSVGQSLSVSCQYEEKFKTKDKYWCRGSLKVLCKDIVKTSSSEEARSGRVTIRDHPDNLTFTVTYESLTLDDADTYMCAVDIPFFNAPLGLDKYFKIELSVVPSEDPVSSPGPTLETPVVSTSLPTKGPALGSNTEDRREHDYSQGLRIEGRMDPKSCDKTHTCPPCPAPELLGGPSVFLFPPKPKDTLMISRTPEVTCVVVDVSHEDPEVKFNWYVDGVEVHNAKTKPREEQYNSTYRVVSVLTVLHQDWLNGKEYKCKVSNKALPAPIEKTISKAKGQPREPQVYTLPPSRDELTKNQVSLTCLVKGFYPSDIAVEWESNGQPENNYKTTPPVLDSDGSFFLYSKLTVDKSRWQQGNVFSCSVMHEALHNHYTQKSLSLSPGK

binding result [1]	binding result [2]	SPR binding (control subtracted) [3]	SPR binding (control subtracted) [4]	SPR binding (control subtracted) [5]	gMFI [6] [gMFI]	Binder
no binding (tested: 300 nM or 600 nM)	no binding (tested: 300 nM or 600 nM)	-2.1	7.4			anti-CD300LB antibody CD-11 (antibody, V domains shown) VH: QIQLVQSGPEVKKPGETVKISCKASGYTLTDYSMHWVMQTPGTGLKWMAWMNTETGEPTYADDFKGRFAFSLETSAGTAYLQIDNLKNEDTATYFCATYGKSYGMKYWGQGTSVTVSS VL: DIVLTQSPPSLAVSLGQRATISCRATKSVSPYLHWYQQTPGQPPKLLIYLASNLDSGVPARFSGSGSGTDFTLNIHPVEEEDAATYYCQHNKELPPTFGGGTRLEIK
no binding (tested: 300 nM or 600 nM)	no binding (tested: 300 nM or 600 nM)	4.2	-0.6	2.5		anti-CD300LB antibody CD-12 (antibody, V domains shown) VH: QIQLVQSGPELKKPGETVKISCKASGYTFTDYSMHWVRQAPGKGLKWMAWINTETGEATHADDFKGRFDFSLDTSASTAYLQIKNLKNEDTGIYFCVCYGSSYGMDYWGQGTSVTVSS VL: DIVLTQSPASLPVSLGQRATISCRASKSVRTSGASYMHWYQQKPGQPPKLLIYLASNLKSGVPTRFSGSGSGTDFTLNIHPVEEEDAATYYCQHNREVPPTFGGGTKLEIK
no binding (tested: 300 nM or 600 nM)	no binding (tested: 300 nM or 600 nM)	4.4	4.5	43.6		anti-CD300LB antibody CD-13 (antibody, V domains shown) VH: QIQLVQSGPELKKPGETVKISCKASGYTFTDYSMHWVKQAPGKGFKWMAWINTETGAPTHADDFRGRFAFSLETSASTAFLQISNLKTEDTATYFCVTFGKSYGMNYWGQGTSVTVSS VL: DIVLTQSPASLSVSLGQRATISCRASKSVGSSGSSYLHWYQQKPGQPPKLLIYLASNLESGVPARFSGSGSGTEFTLNIHPVEEEDAATYYCQHNAEVPPTFGGGTKLEIK
no binding (tested: 300 nM or 600 nM)	no binding (tested: 300 nM or 600 nM)	-2.5	11.3			anti-CD300LB antibody CD-10 (antibody, V domains shown) VH: QVQLQQSGPELVRPGVSVKISCKGSGYTFTDYAMHWVKQSHVRSREWIGVIGTYNGHTNYNQKFKGKATMTVDKSSSTAYLELARLTSEDSAIYYCARSGSYYYSMDYWGQGTSVTVSS VL: QIVLTQSPAIMSASPGEKVTMTCSASSSVNYMHWYQQKSGTSPKRWIYDTSKLSSGVPARFSGSGSGTSYSLTISTMEAEDAATYYCQQWSSNPPMTFGGGTKLEIK

More lines, now with the values behind:

Binder	binding result [1]	binding result [2]	SPR binding (control subtracted) [3]	SPR binding (control subtracted) [4]	SPR binding (control subtracted) [5]	gMFI [6] [gMFI]
anti-CD300LB antibody CD-07 (antibody, V domains shown) VH: QVQLVQSGAEVKKPGASVKVSCKASGYTFTNYRMHWVRQAPGQGLEWMGWINPNSGGTIYAQKFQGRVTMTRDTSTSTVYMELSSLRSEDTAVYYCARDLDYWGQGTLVTVSS VL: DIQMTQSPSSLSASVGDRVTITCQASQDISNYLNWYQQKPGKAPKLLIYGASSLQSGVPSRFSGSGSGTDFTLTISSLQPEDFATYYCQQSYSTPWTFGPGTKVEIK						686
anti-CD300LB antibody CD-06 (antibody, V domains shown) VH: QVQLVQSGAEVKKPGASVKVSCKASGYTFTTYAVHWVRQAPGQGLEWMGIVNPNSGGTNYAQKFQGRVTMTRDTSTSTVYMELSSLRSEDTAVYYCARDIVPMNNFYNYYYGMDVWGQGTTVTVSS VL: DIQMTQSPSSLSASVGDRVTITCRASQSISSYLNWYQQKPGKAPKLLIYATSTLQSGVPSRFSGSGSGTDFTLTISSLQPEDFATYYCQQSYRIPYTFGQGTKVEIK						314
anti-CD300LB antibody CD-05 (antibody, V domains shown) VH: QVQLVQSGAEVKKPGASVKVSCKASGYTFSRYYINWVRQAPGQGLEWMGWINPNSGGTNYAQKFQGRVTMTRDTSTSTVYMELSSLRSEDTAVYYCTTDQLRFGKTGPYYGMDVWGQGTTVTVSS VL: DIQMTQSPSSLSASVGDRVTITCRASQNIGTYLNWYQQKPGKAPKLLIYAASSLQSGVPSRFSGSGSGTDFTLTISSLQPEDFATYYCQQSYSDTLTFGGGTKVEIK						933
anti-CD300LB antibody CD-03 (antibody, V domains shown) VH: EVQLQQSGPELVKPGASVKISCKASGYTFTDYYINWVRQSHGKSLECIGDINPNNGGTNYNQKFKGKATLTVDRSSNTAYMEFRSLTFDDSALYYCAAEGAYWGQGTLVTVSA VL: not shown						38.7
anti-CD300LB antibody CD-02 (antibody, V domains shown) VH: QVQLQQPGAELVRPGSSVKLSCQASGYTFTNYWMHWVRQRPIQGLEWIGNIDPSDSETHYNQKFKDRATLTVDKSSSTAYMQLSSLTSEDSAVYYCARSGVYDDEGGDYWGQGTTLTVSS VL: ENVLTQSPAIMSASPGEKVTMTCSASSSVSYIHWYQQKSSTSPKLWIYDTSKLASGVPGRFSGSGSGNSYSLTISSMETEDVATYYCFQGSGYPLTFGAGTKLELK						578
anti-CD300LB antibody CD-01 (antibody, V domains shown) VH: RVQLQQSGAELVRPGASVTLSCKASGFTFTDFEMHWVKKTPVHGLEWIGAIDPESGNTAYNQKFRGKATLTADKSSSTAYMELRYLTSEDSAVYYCTPLISGADYWGQGTTLTVSS VL: DVVMTQSPLSLPVSLGDQASISCRSSQSLVHSDGNTYLYWYLQKPGQSPKLLIYKVSNRFSGVPDRFSGSGSGTDFTFKISRVGAEDLGVYFCSQSTHVPWTFGGGTKLEII						166

Reference: patent US20240254227A1 (Alector, published 2024)
